Source: patent publication US11214624

Molecular target: microtubule (in vitro reconstituted, taxol-stabilised)
Assay: cell-based or functional assay

% of gliding microtubules (n = 50), ATP: 89.2% | Maximum gliding speed, ATP: 0.27 µm/min | Mean gliding speed, ATP: 0.17 µm/min
Substance: kinesin (positive control motor protein in the gliding assay)
